Test results from paper PMC11393453, “Phosphorylation of tau at a single residue inhibits binding to the E3 ubiquitin ligase, CHIP” (Nature Communications, 2024).
Positions count from the first letter of the chain named. Numbers in names are those of the source. Where two headings read alike, the source gives them in different places. One block for each molecule: values may come before it. Non-standard residues stand in square brackets, D forms with d. pS = N[C@@H](COP(=O)(O)O)C(=O)O

What was measured:
CHIP [1] = assay: NanoBiT live cell PPI assay (CHIP-tau split luciferase); format: cell-based; conditions: 30 nM okadaic acid; HEK293 cells
Description: Fig. 1 Phosphorylation of tauC3 inhibits interaction with CHIP. A Cartoon schematic of the live-cell NanoBiT assay for measuring CHIP-tau PPIs (NanoBiT PDB = 7SNX; CHIP PDB = 2C2L). B Results of NanoBiT assays for CHIP interactions with tau proteoforms following treatment with okadaic acid (30 nM, 18 h) or DMSO control. Luminescence normalized to CHIP binding to FL 0N4R tau treated with vehicle (dashed line). Error bars represent standard deviation (SD). Statistical significance was determined by two-way ANOVA with Bonferroni’s post hoc analysis (n = 3 biological replicates). CTRL = mock transfected control. C Tau proteoforms binding to immobilized CHIP measured by ELISA. Assay was performed in technical triplicate and normalized to maximum absorbance at 450 nm. D Dissociation constants derived from (C). Error bars represent SD. E In vitro ubiquitination of tau proteoforms by CHIP. Samples were collected at the denoted timepoints, quenched in SDS-PAGE loading buffer, and analyzed by western blot. Assay was performed once.
Fig. 2 Phosphorylation of tauC3 Ser416 is sufficient to inhibit interaction with CHIP. A Cartoon depicting constructs used for mapping of inhibitory phosphorylation sites by NanoBiT live cell assays. B NanoBiT live cell assay for CHIP interactions with truncated tau constructs following treatment with okadaic acid (30 nM, 18 h) or DMSO control. Data are shown as the difference between okadaic acid treated samples and vehicle control. Error bars represent SD. Statistical significance was determined by two-sided, one-way ANOVA with Tukey’s post hoc analysis (n = 3 biological replicates). C Apparent change in melting temperatures (Tmapp) for CHIP incubated with DMSO control or Hsp70 C-terminal peptides, as determined by DSF. Error bars represent SD. (n = 4 technical replicates). D DSF experiments performed and analyzed as in the previous panel, but with tauC3-derived peptides. (n = 4 technical replicates). E Competition FP experiment showing displacement of fluorescent tracer from the CHIP TPR domain by various 10-mer Hsp70 or tauC3-derived peptides. Experiments were performed in technical quadruplicate. F Inhibition constants derived from (E). Error bars represent SD. G Tau proteoforms binding to immobilized CHIP, as measured by ELISA. Assay was performed in technical triplicate and normalized to maximum absorbance at 450 nm. H Dissociation constants derived from (G). Error bars represent SD.
CHIP-substrate NanoBiT PPI assay was performed as previously described. Briefly, HEK293T cells were seeded in poly-D-lysine coated 96-well plates (Corning, flat bottom, white opaque) in Opti-MEM. Cells were transfected with 50 ng each SmBiT/LgBiT DNA using Lipofectamine 3000 (Thermo Fisher) in Opti-MEM according to the manufacturer’s instructions. Transfections were performed for 24 h, after which the media was replaced with fresh Opti-MEM containing DMSO or 30 nM okadaic acid. Cells were incubated for an additional […] at 37 °C/5% CO2 in a humidified incubator. Following this incubation, 12.5 uL 1X Nano-Glo live cell luciferase reagent (Promega) diluted in LCS buffer (Promega) was added to each well, and samples were incubated for 10 min at room temperature in the dark to allow luminescence levels to stabilize. […] Un-transfected cells were used to obtain background measurements which were subtracted from observed luminescence values.

CHIP [2] = assay: Differential scanning fluorimetry (DSF), CHIP WT with 10-mer peptides; format: binding, human; conditions: CHIP + peptide, sheet S3B
Description: DSF was performed with a 10 µL assay volume in 384-well Axygen quantitative PCR plates (Fisher Sci) on a qTower[3] real-time PCR thermal cycler (Analytik Jena). […] Temperature was increased 1 °C per cycle. Each well contained 5 µM CHIP, 5× Sypro Orange dye (Thermo Fisher), and varying concentrations of peptide in DSF assay buffer (25 mM HEPES pH 7.4, 50 mM KCl, 1 mM TCEP, 0.2% CHAPS, 1%DMSO). Fluorescence intensity data was truncated between 30–60 °C, plotted relative to temperature, and fit to a Boltzmann Sigmoid in GraphPad Prism 9.0. CHIP apparent melting temp (Tmapp) was calculated based on the following equation:1 Y=Bottom+((Top−Bottom)/(1+exp(Tm−T/Slope)))

[3] = biological target: CHIP (C-terminus of Hsc70 interacting protein; STUB1) (UniProt Q9UNE7); assay: differential scanning fluorimetry of CHIP
[4] = biological target: CHIP (C-terminus of Hsc70 interacting protein; STUB1) (UniProt Q9UNE7); assay: competition FP against fluorescent tracer; conditions: reference: unmodified Hsp70 peptide; sites T636
[5] = biological target: GFP-tagged tauC3 S416E, doxycycline-inducible in HEK293 Flp-In T-REx cells; assay: co-IP; tau immunoprecipitated with anti-Tau-5 and Protein A/G agarose from lysates of HEK293 Flp-In T-REx GFP-tau cells (25 mM Tris-HCl pH 7.4, 150 mM NaCl, 1 mM EDTA, 1% NP-40); co-precipitated endogenous CHIP by western blot
[6] = biological target: CHIP (C-terminus of Hsc70 interacting protein; STUB1), recombinant human, full-length (human) (UniProt Q9UNE7)
[7] = biological target: CHIP (C-terminus of Hsc70 interacting protein; STUB1) (UniProt Q9UNE7); assay: tau IP (Tau-5), CHIP western blot; conditions: reference: GFP-tauC3 WT; sites S416
[8] = biological target: CHIP (C-terminus of Hsc70 interacting protein; STUB1), recombinant human, full-length (human) (UniProt Q9UNE7); remark: listed apart in the source
CHIP F131A = biological target: T1, CHIP F131A (human, UniProt Q9UNE7 1-303, F131A); assay: differential scanning fluorimetry; 5 µM CHIP, 5x Sypro Orange, varying concentrations of peptide in 25 mM HEPES pH 7.4, 50 mM KCl, 1 mM TCEP, 0.2% CHAPS, 1% DMSO; apparent melting temperature (Tmapp) of CHIP; conditions: both partners purified
T1 construct: CHIP (STUB1) with Phe131 mutated to alanine
T1 sequence (looked up): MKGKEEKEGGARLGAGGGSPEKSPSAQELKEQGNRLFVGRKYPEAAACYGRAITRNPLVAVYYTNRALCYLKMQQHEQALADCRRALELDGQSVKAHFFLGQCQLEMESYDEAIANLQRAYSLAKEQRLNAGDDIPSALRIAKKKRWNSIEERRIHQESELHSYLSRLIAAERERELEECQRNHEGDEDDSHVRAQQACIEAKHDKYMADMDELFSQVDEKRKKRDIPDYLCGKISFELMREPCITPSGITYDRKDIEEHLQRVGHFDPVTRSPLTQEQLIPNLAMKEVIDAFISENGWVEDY

[9] = biological target: T2, CHIP (C-terminus of Hsc70 interacting protein; STUB1), recombinant human, full-length (human, UniProt Q9UNE7 1-303); assay: fluorescence polarisation; competition: CHIP 1.58 µM + fluorescent tracer 20 nM, peptide competitor in three-fold dilutions, 25 mM HEPES pH 7.4, 50 mM KCl, 0.01% Triton X-100, DMSO; Ki calculated from IC50; conditions: both partners purified
T2 construct: CHIP (STUB1), human, E3 ubiquitin ligase; Used in ELISA, DSF and FP; the FP legends speak of the CHIP TPR domain, the FP methods only of CHIP; also called WT CHIP; source: E. coli BL21DE3, purified (Ni-NTA, TEV cleavage, SEC); not shown: His6, N-terminal, cleaved
T2 sequence (looked up): T1 sequence (looked up) with A131F

CHIP D134A [10] = biological target: T3, CHIP D134A (human, UniProt Q9UNE7 1-303, D134A); assay: as above; conditions: both partners purified
T3 construct: CHIP (STUB1) with Asp134 mutated to alanine; also called D134A CHIP
T3 sequence (looked up): T1 sequence (looked up) with A131F, D134A

CHIP D134A [11] = biological target: T3, CHIP D134A; assay: differential scanning fluorimetry; 5 µM CHIP, 5x Sypro Orange, varying concentrations of peptide in 25 mM HEPES pH 7.4, 50 mM KCl, 1 mM TCEP, 0.2% CHAPS, 1% DMSO; apparent melting temperature (Tmapp) of CHIP; conditions: both partners purified
[12] = reference: unmodified tauC3 peptide, sites S416

Molecule: C=C1[C@@H](O)[C@@H]2O[C@]3(CC[C@H](/C=C/[C@@H](C)[C@@H]4CC(C)=C[C@@]5(O[C@H](C[C@@](C)(O)C(=O)O)CC[C@H]5O)O4)O3)CC[C@H]2O[C@@H]1[C@@H](O)C[C@H](C)[C@H]1O[C@@]2(CCCCO2)CC[C@H]1C [okadaic acid, reference compound]
effect on CHIP interaction with FL tau (CHIP [1]): enhanced CHIP’s interaction with FL tau
effect on CHIP interaction with tauC3 (CHIP [1]): significantly lessened the interaction with tauC3

Molecule: ESTGSIDMVD [tauC3 S412E, 10-mer tauC3 phosphomimetic peptide]
Tm(app) derived from DSF curves (CHIP [2]; replicate 1): 50.23
Tm(app) derived from DSF curves (CHIP [2]; replicate 2): 50.09
Tm(app) derived from DSF curves (CHIP [2]; replicate 3): 49.65
Tm(app) derived from DSF curves (CHIP [2]; replicate 4): 49.78

Molecule: SETGSIDMVD [tauC3 S413E, 10-mer tauC3 phosphomimetic peptide]
Tm(app) derived from DSF curves (CHIP [2]; replicate 1): 50.06
Tm(app) derived from DSF curves (CHIP [2]; replicate 2): 50.15
Tm(app) derived from DSF curves (CHIP [2]; replicate 3): 49.96
Tm(app) derived from DSF curves (CHIP [2]; replicate 4): 49.5

Molecule: SSEGSIDMVD [tauC3 T414E, 10-mer tauC3 phosphomimetic peptide]
Tm(app) derived from DSF curves (CHIP [2]; replicate 1): 49.33
Tm(app) derived from DSF curves (CHIP [2]; replicate 2): 49.12
Tm(app) derived from DSF curves (CHIP [2]; replicate 3): 49.22
Tm(app) derived from DSF curves (CHIP [2]; replicate 4): 48.96

Molecule: endogenous CHIP (from UniProt Q9UNE7 1-303) (enzyme)
relative amount of co-immunoprecipitated CHIP [5]: 0.55

Molecule: tau (MAPT/tau; tauC3, FL 0N4R tau) C-terminal 10-mer of tauC3, ends at D421 (from UniProt P10636-8) pS416 peptide
binding against the reference [3, 12]: weaker

Molecule: tau (MAPT/tau; tauC3, FL 0N4R tau) tauC3, ends at D421 (from UniProt P10636-8) GFP-tauC3 S416E
other: relative amount of co-IP CHIP [7]: 0.55

Molecule: tauC3, unmodified recombinant (0N4R tau cleaved at D421) (domain or fragment)
Kd [8]: 0.09 µM
Kd [6]: 0.19 µM

B1: tauC3 C-terminal 10-mer peptide Ac-SSTGSIDMVD-OH (peptide)
peptide: Ac-SSTGSIDMVD-OH
notes: C-terminus of tauC3 (tau ending at D421); numbers count on: the 2N4R-tau splice isoform; also called WT tauC3 peptide; WT tauC3; source: synthetic peptide
binding result (CHIP F131A): binds
Ki [9]: 0.15 µM
Ki (CHIP D134A [10]): 5.57 µM

Next, values leading:

binding against the reference ([3]; reference: unmodified Hsp70 peptide, sites T636): weaker
binding against the reference [4]: weaker
Molecule: Hsp70 (HSPA1A) C-terminal 10mer (from UniProt P0DMV8) pT636 peptide

Kd [6]: 0.7 µM
Molecule: p.tauC3, natively phosphorylated tauC3 from Sf9 insect cells (domain or fragment)

other: CHIP Tmapp [3, 12]: weaker; reference 48.81 ± 0.11
Molecule: tau (MAPT/tau; tauC3, FL 0N4R tau) C-terminal 10-mer of tauC3, ends at D421 (from UniProt P10636-8) S416E peptide (Ac-…-OH)

Kd [8]: 0.78 µM
Molecule: tauC3 S416E, recombinant protein with a single phosphomimetic mutation (domain or fragment)

binding result (CHIP D134A [11]): binds
binding result (CHIP F131A): binds
Ki [9]: 2.41 µM
B2: tauC3 S416E phosphomimetic 10-mer peptide Ac-SSTGEIDMVD-OH (peptide)
peptide: Ac-SSTGEIDMVD-OH
notes: C-terminus of tauC3 with S416 replaced by glutamic acid; numbers count on: the 2N4R-tau splice isoform; also called tauC3 S416E peptide; pS416 phosphomimetic; source: synthetic peptide

Ki [9]: 1.01 µM
Ki (CHIP D134A [10]): 1.84 µM
B3: tauC3 pS416 10-mer peptide (peptide)
peptide: Ac-SSTG[pS]IDMVD-OH
notes: C-terminal 10-mer of tauC3 with a bona fide phosphoserine at the S416 position; numbers count on: the 2N4R-tau splice isoform; also called phosphorylated tauC3 peptide; source: synthetic peptide (Genscript)
